Reference: patent publication US20240101673A1 (MOZART THERAPEUTICS, published 2024)
Blank lines part the entries; values can stand above or below the binder they belong to.

How the values were obtained:
CD8 [1] = biological target: CD8 (Homo sapiens); test: titration on the CXCR3 CD39 CD8 T cell subset, gMFI (flow cytometry)
CD8 [2] = biological target: CD8 (Homo sapiens); test: titration on CD8+ T cells, gMFI (flow cytometry)
[3] = biological target: T1, CD8alpha tagged with a hexahistidine peptide (UniProt P01732 22-182, limits assumed); test: BLI (Octet), antibody captured on AHC anti-human Fc biosensors, analyte 6.25-200 nM
T1 construct: Soluble analyte in the Octet assays; not shown: hexahistidine tag (HHHHHH)
T1 sequence (P01732 22-182 limits assumed): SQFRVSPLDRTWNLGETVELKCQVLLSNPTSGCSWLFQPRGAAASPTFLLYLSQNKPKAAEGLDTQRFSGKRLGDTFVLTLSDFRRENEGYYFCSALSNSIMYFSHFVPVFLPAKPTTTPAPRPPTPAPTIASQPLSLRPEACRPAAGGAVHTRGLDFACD
Protocol: The affinities of the parental antibodies anti-KIR2DL1/L2/L3 IPH2102 IgG1 r mAb and anti-CD8alpha Mb1 b IgG1r mAb were also analyzed. For kinetic analysis, the parental antibodies were separately captured to AHC (anti-human Fc) biosensors using a load concentration of 1.25 ug/ml. For IPH2102 IgG1r mAb, the KIR2DL1, or KIR2DL3 analytes ranged from 6.25 nM to 200 nM. Analyte binding following capture was analyzed first for association of KIR2DL1 or KIR2DL3 followed by the dissociation of each analyte independently. Likewise, for the Mb1b IgG1r mAb, the CD8alpha analyte ranged from 6.25 nM to 200 nM. Analyte binding following capture was analyzed first for association followed by the dissociation of CD8alpha.

[4] = biological target: T1, CD8alpha tagged with a hexahistidine …; test: BLI (Octet), CrossMAb captured on AHC anti-human Fc biosensors, analyte 6.25-200 nM
[5] = biological target: T2, KIR2DL3 tagged with a hexahistidine peptide (UniProt P43628 22-245, limits assumed); test: as above
T2 construct: Soluble analyte in the Octet assays; not shown: hexahistidine tag (HHHHHH)
T2 sequence (P43628 22-245 limits assumed): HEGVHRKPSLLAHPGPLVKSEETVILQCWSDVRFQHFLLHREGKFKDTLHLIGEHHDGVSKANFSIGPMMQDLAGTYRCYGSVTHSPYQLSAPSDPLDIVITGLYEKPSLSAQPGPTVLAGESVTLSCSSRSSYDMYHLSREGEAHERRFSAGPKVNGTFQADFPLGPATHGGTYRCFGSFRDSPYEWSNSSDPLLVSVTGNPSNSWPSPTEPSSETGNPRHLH

[6] = biological target: T3, KIR2DL1 tagged with a hexahistidine peptide (UniProt P43626 22-245, limits assumed); test: as above
T3 construct: Soluble analyte in the Octet assays; also called KIRDL1; not shown: hexahistidine tag (HHHHHH)
T3 sequence (P43626 22-245 limits assumed): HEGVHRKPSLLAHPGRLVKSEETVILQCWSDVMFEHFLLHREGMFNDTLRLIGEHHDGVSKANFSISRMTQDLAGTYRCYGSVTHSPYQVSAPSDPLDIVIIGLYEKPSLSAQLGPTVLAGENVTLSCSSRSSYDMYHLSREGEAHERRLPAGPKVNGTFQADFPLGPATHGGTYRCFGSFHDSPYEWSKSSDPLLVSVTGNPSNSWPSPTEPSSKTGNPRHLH

Chain of CD8 (Homo sapiens) (chain, as listed by the source): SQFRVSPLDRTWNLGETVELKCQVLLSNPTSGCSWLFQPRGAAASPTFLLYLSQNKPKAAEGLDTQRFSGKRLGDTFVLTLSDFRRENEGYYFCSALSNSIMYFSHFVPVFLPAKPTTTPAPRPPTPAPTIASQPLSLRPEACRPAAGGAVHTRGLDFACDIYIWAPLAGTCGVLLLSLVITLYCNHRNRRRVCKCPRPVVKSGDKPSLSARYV

- EC50 (read off the curve) (CD8 [1]): ~100 nM
- EC50 (read off the curve) (CD8 [2]): ~40 nM
B1: KIR2DLxCD8 bispecific (bispecific antibody)
chain 1: QVQLVQSGAEVKKPGSSVKVSCKASGGTFSFYAISWVRQAPGQGLEWMGGFIPIFGAANYAQKFQGRVTITADESTSTAYMELSSLRSDDTAVYYCARIPSGSYYYDYDMDVWGQGTTVTVSS
chain 2: EIVLTQSPVTLSLSPGERATLSCRASQSVSSYLAWYQQKPGQAPRLLIYDASNRATGIPARFSGSGSGTDFTLTISSLEPEDFAVYYCQQRSNWMYTFGQGTKLEIK
chain 3: EVQLVESGGGLVQPGGSLRLSCAASGFNIKDTYIHFVRQAPGKGLEWIGRIDPANDNTLYASKFQGKATISADTSKNTAYLQMNSLRAEDTAVYYCGRGYGYYVFDHWGQGTLVTVSS
chain 4: DVQITQSPSSLSASVGDRVTITCRTSRSISQYLAWYQQKPGKVPKLLIYSGSTLQSGVPSRFSGSGSGTDFTLTISSLQPEDVATYYCQQHNENPLTFGGGTKVEIK

- Kd [3]: 2.6 nM
B2: Mb1b IgG1 r mAb (antibody, V domains shown)
VH: B1 chain 3
VL: B1 chain 4
notes: also called Mb1b parental antibody; anti-CD8alpha Mb1 b IgG1r mAb

- Kd [4]: 2.07 nM
- Kd [5]: 0.88 nM
- Kd [6]: 1.52 nM
B3: IPH2102/Mb1b CrossMAb (bispecific antibody)
chain 1: B1 chain 1
chain 2: B1 chain 2
chain 3: B1 chain 3
chain 4: B1 chain 4
